Target: T1, MBP-IGKVDJ3-6×His (MBP fusion human antibody kappa light chain variable region protein, family 3 consensus)
T1 construct: also called MBP-VK3
Assay: SPR (legend of Fig. 12B), control MBP

T1 sequence (chain, as listed by the source): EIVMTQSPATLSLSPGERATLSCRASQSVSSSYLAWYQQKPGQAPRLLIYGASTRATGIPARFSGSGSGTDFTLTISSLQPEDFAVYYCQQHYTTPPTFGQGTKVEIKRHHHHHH

binding result: binds
Binder: WHWNWMRLDPMT [code 15 peptide]

Reference: patent WO2013125221A1 (dated 2013)
